Test results as given in the supplement of paper PMC10567573.

B1: FUT8 (parent)
chain: YAHQPRTADEIPMEPGDIIGVAGN

Variants of: B1
Assay: protein stability index of a GFP-peptide fusion (GPS, HEK-293T) (PSI 1-6); higher = more stable
Conditions: c terminus: a fixed tail appended
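Further: lentivirally expressed fusions sorted by FACS into six bins by GFP to DsRed ratio, PSI derived from sequencing read proportions per bin multiplied by bin number.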

Protein stability index of substitutions, site by site:
P5: L 3.75; M 3.53; N 4.33; Q 4.12; R 3.55; S 3.85; T 4.31; V 3.92; W 1.88; Y 3.48
R6: A 4.48; C 4.05; D 4.54; E 5.23; F 3.46; G 4.65; H 4.25; I 4.12; K 3.99; L 4.2; M 3.84; N 4.33; P 4.78; Q 4.47; S 4.46; T 4.59; V 4.44; W 2.62; Y 3.73
T7: A 4.18; C 2.73; D 4.62; E 4.84; F 2.37; G 4.18; H 3.66; I 3.66; K 3.56; L 3.71; M 3.68; N 4.51; P 3.97; Q 4.25; R 3.9; S 4.12; V 3.89; W 2.46; Y 3.58
A8: C 3.44; D 4.49; E 4.4; F 3.48; G 4.19; H 3.87; I 4.02; K 3.88; L 3.43; M 3.74; N 4.22; P 4.32; Q 4.25; R 3.89; S 3.87; T 4.24; V 3.77; W 2.78; Y 3.15
D9: A 3.53; C 3.22; E 4.09; F 2.68; G 3.52; H 3.67; I 2.6; K 3.51; L 3.1; M 3.74; N 3.65; P 3.33; Q 3.74; R 3.41; S 3.67; T 3.57; V 2.52; W 2.16; Y 2.62
E10: A 3.67; C 3.25; D 4.18; F 3.14; G 2.53; H 3.33; I 2.99; K 2.9; L 3.56; M 3.44; N 3.73; P 3.66; Q 3.08; R 2.96; S 3.74; T 3.66; V 3.37; W 2.23; Y 3.06
I11: A 4.44; C 4.26; D 4.65; E 4.37; F 3.71; G 3.98; H 4.06; K 4.27; L 3.47; M 4.09; N 4.26; P 4.12; Q 4.46; R 4.07; S 4.09; T 4.2; V 4.55; W 3.44; Y 3.93
P12: A 4.23; C 3.48; D 4.2; E 4.2; F 3.27; G 3.6; H 3.41; I 3.27; K 3.96; L 3.57; M 3.58; N 3.73; Q 4.47; R 3.28; S 4.08; T 4.09; V 3.72; W 2.4; Y 3.21
M13: A 4.69; C 3.9; D 4.82; E 4.73; F 3.43; G 4.52; H 4.33; I 3.87; K 3.95; L 4.1; N 4.46; P 4.18; Q 4.71; R 4.43; S 4.07; T 4.34; V 4.68; W 3.08; Y 4.12
E14: A 3.41; C 3.32; D 3.75; F 2.46; G 3.35
